Laboratory results: US20250296971A1, “GASTRIC INHIBITORY PEPTIDE RECEPTOR LIGANDS” (priority 2021, published 2025)
*1 amine or outer side, *2 acyl side, *3 side chain or, on linkers, in order; H or OH if unused. Bridges are numbered along the chain shown (N, C = ends). Primed or numbered codes have the meaning given here. Side-chain parts run from the residue outwards. [ ]: non-standard residue; d: D form. The star is where a group is joined. EuDOTA = DOTA europium complex, O=C([O-])CN1CCN(CC(=O)[O-])CCN(CC(=O)*)CCN(CC(=O)[O-])CC1.[Eu+3]; Ttds = 1,13-diamino-4,7,10-trioxatridecan-succinamic acid, NCCCOCCOCCOCCCNC(=O)CCC(=O)*; NOPO = NOPO chelator, O=C(CCP(=O)(O)CN1CCN(CP(=O)(O)CO)CCN(CP(=O)(O)CO)CC1)*; NH(1-deoxy-D-glucityl) = OC[C@@H](O)[C@@H](O)[C@H](O)[C@@H](O)CN*; APAc″ = 4-amino-1-carboxymethylpiperidine, NC1CCN(CC(=O)*)CC1; dE(AGLU) = D-glutamic acid bearing 1-amino-1-deoxy-D-glucitol; Ttds(4) = 1,13-diamino-4,7,10-trioxatridecan-succinamic acid; Pro(trans-4-NH2) = O=C([C@@H]1C[C@@H](N[*:3])CN1[*:1])[*:2]; DOTA = O=C(O)CN1CCN(CC(=O)O)CCN(CC(=O)*)CCN(CC(=O)O)CC1; NODAGA = O=C(O)CN1CCN(CC(=O)O)CCN(C(CCC(=O)*)C(=O)O)CC1; 2Lut = 2,6-lutidylidene bridge between two thiols; Trp(5-Cl) = N[C@@H](Cc1c[nH]c2ccc(Cl)cc12)C(=O)O; Pyridine(2,6-diCH2) = c1cc(C[*:1])nc(C[*:2])c1; Trp(5-F) = N[C@@H](Cc1c[nH]c2ccc(F)cc12)C(=O)O; APAc = 4-amino-1-carboxymethylpiperidine; 1Nal = N[C@@H](Cc1cccc2ccccc12)C(=O)O; mXylylene = c1cc(C[*:1])cc(C[*:2])c1; LuDOTA = DOTA Lutetium(III) complex; Glutaryl = O=C(CCCC(=O)[*:2])[*:1]; AGLU = 1-amino-1-deoxy-D-glucitol; Hyp = O=C(O)[C@@H]1C[C@@H](O)CN1; dGlu(AGLU) = not defined here; Suc = O=C(CCC(=O)[*:2])[*:1]; hSer = N[C@@H](CCO)C(=O)O; Api = NC1(C(=O)O)CCNCC1; Thp = NC1(C(=O)O)CCOCC1; Aib = CC(C)(N)C(=O)O

B1: AGLU-Glutar-APAc-Asp-Trp-5Clw-Tap-Glu-leu-[Cys(2Lut)-Apc(InDOTA-glu(AGLU))-Leu-Ile-Cys]-APAc-glu(AGLU)-NH2 (peptide)
peptide: {AGLU-Glutaryl-APAc}-DW[Trp(5-Cl)][Pro(trans-4-NH2)]E[dL]C[Api]LIC-{APAc-dE(AGLU)-NH2}
modifications: linker 7-11 via Pyridine(2,6-diCH2); not fully specified (residue 8); also: DOTA complexed with In (InDOTA)
B2: AGLU-Glutar-APAc-Asp-Trp-5Clw-Tap-Glu-leu-[Cys(2Lut)-Apc(GaDOTA-glu(AGLU))-Leu-Ile-Cys]-APAc-glu(AGLU)-NH2 (peptide)
peptide: {AGLU-Glutaryl-APAc}-DW[Trp(5-Cl)][Pro(trans-4-NH2)]E[dL]C[Api]LIC-{APAc-dE(AGLU)-NH2}
modifications: linker 7-11 via Pyridine(2,6-diCH2); not fully specified (residue 8); also: DOTA complexed with Ga (GaDOTA)
B3: AGLU-Glutar-Asp-Trp-5Clw-Hyp-Glu-leu-[Cys(2Lut)-Apc(GaDOTA)-Leu-Ile-Cys]-APAc-glu(AGLU)-NH2 (peptide)
peptide: DWXXEXCXLIC
modifications: N-term AGLU-Glutar; 5Clw; Hyp; leu (D-Leu); thioether cycle [Cys(2Lut)..Cys]; Apc(GaDOTA); C-term APAc-glu(AGLU)-NH2
B4: AGLU-Glutar-APAc-Asp-Trp-5Clw-Tap-Glu-leu-[Cys(2Lut)-Apc(LuDOTA-glu(AGLU))-Leu-Ile-Cys]-APAc-glu(AGLU)-NH2 (peptide)
peptide: {AGLU-Glutaryl-APAc}-DW[Trp(5-Cl)][Pro(trans-4-NH2)]E[dL]C[Api]LIC-{APAc-dE(AGLU)-NH2}
modifications: linker 7-11 via Pyridine(2,6-diCH2); not fully specified (residue 8); also: DOTA complexed with Lu (LuDOTA)

Molecular target: human Gastric Inhibitory Peptide Receptor (human) (UniProt P48546)
Sequence (P48546 22-466 limits assumed): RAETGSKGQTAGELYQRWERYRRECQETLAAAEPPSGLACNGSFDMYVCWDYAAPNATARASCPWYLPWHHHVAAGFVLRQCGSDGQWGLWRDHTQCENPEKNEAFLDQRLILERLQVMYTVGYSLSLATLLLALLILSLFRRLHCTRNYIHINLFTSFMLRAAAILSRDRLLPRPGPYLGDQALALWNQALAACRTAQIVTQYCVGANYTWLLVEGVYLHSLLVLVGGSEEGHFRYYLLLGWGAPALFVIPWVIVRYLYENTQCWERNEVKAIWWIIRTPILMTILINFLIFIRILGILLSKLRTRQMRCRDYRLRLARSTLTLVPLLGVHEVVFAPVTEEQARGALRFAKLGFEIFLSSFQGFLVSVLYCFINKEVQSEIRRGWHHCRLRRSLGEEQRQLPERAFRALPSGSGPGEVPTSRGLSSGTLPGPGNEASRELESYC
Test: FACS competition with GIP-057 on CHO-K1-hGIPR cells; pIC50 category A: >8.0

Binder	pIC50 [pic50]
{DOTA-Ttds}-DW[Trp(5-Cl)][Pro(trans-4-NH2)](DOTA)E[dL]C[Api](DOTA)LICK(DOTA)-NH2 (linker 7-11 via Pyridine(2,6-diCH2)) [DOTA-Ttds-Asp-Trp-5Clw-Tap(DOTA)-Glu-leu-[Cys(2Lut)-Apc(DOTA)-Leu-Ile-Cys]-Lys(DOTA)-NH2]	> 8
B1	> 8
{AGLU-Glutaryl}-DW[Trp(5-Cl)][Pro(trans-4-NH2)]E[dL]C[Api](DOTA)LI[dC]-{APAc-dE(AGLU)-NH2} (linker 7-11 via Pyridine(2,6-diCH2)) [AGLU-Glutar-Asp-Trp-5Clw-Tap-Glu-leu-[Cys(2Lut)-Apc(DOTA)-Leu-Ile-cys]-APAc-glu(AGLU)-NH2]	> 8
{AGLU-Glutaryl-APAc″}-DW[Trp(5-Cl)][Hyp]E[dL]C[Api](DOTA)LIC-{dE(AGLU)-NH2} (linker 7-11 via Pyridine(2,6-diCH2)) [AGLU-Glutar-APAc-Asp-Trp-5Clw-Hyp-Glu-leu-[Cys(2Lut)-Apc(DOTA)-Leu-Ile-Cys]-glu(AGLU)-NH2]	> 8
{EuDOTA-dGlu(AGLU)-APAc}-DW[Trp(5-Cl)][Hyp]E[dL]C[Thp]LIC-{APAc-dGlu(AGLU)-NH2} (linker 7-11 via 2Lut; reading uncertain; also: Eu complex of DOTA) [EuDOTA-glu(AGLU)-APAc-Asp-Trp-5Clw-Hyp-Glu-leu-[Cys(2Lut)-Thp-Leu-Ile-Cys]-APAc-glu(AGLU)-NH2]	> 8
{AGLU-Glutaryl}-DW[Trp(5-Cl)][Pro(trans-4-NH2)]E[dL]C[Api]([Gly-NODAGA])LIC-{APAc-dE(AGLU)-NH2} (linker 7-11 via Pyridine(2,6-diCH2)) [AGLU-Glutar-Asp-Trp-5Clw-Tap-Glu-leu-[Cys(2Lut)-Apc(NODAGA-Gly)-Leu-Ile-Cys]-APAc-glu(AGLU)-NH2]	> 8
{LuDOTA-dE(AGLU)-APAc}-DW[Trp(5-Cl)][Hyp]E[dL]C[Thp]LIC-{APAc-dE(AGLU)-NH2} (linker 7-11 via Pyridine(2,6-diCH2)) [LuDOTA-glu(AGLU)-APAc-Asp-Trp-5Clw-Hyp-Glu-leu-[Cys(2Lut)-Thp-Leu-Ile-Cys]-APAc-glu(AGLU)-NH2]	> 8
B2	> 8
{AGLU-Glutaryl}-DW[Trp(5-Cl)][Pro(trans-4-NH2)]E[dL]C[Api](NOPO)LIC-{APAc-dE(AGLU)-NH2} (linker 7-11 via Pyridine(2,6-diCH2)) [AGLU-Glutar-Asp-Trp-5Clw-Tap-Glu-leu-[Cys(2Lut)-Apc(NOPO)-Leu-Ile-Cys]-APAc-glu(AGLU)-NH2]	> 8
Ac-D[Trp(5-F)][1Nal]PE[dL]C[Aib]LIC-{Ttds(4)-K(DOTA)-NH2} (linker 7-11 via mXylylene) [Ac-Asp-5Fw-1Ni-Pro-Glu-leu-[Cys(3MeBn)-Aib-Leu-Ile-Cys]-Ttds-Lys(DOTA)-NH2]	> 8
{DOTA-dE(AGLU)-APAc}-DW[Trp(5-Cl)][Hyp]E[dL]C[Api]([Glutaryl-NH(1-deoxy-D-glucityl)])LIC-{APAc-dE(AGLU)-NH2} (linker 7-11 via Pyridine(2,6-diCH2))	> 8
{AGLU-Glutaryl}-[hSer]W[Trp(5-Cl)][Pro(trans-4-NH2)]E[dL]C[Api](DOTA)LIC-{APAc-dE(AGLU)-NH2} (linker 7-11 via Pyridine(2,6-diCH2)) [AGLU-Glutar-Hse-Trp-5Clw-Tap-Glu-leu-[Cys(2Lut)-Apc(DOTA)-Leu-Ile-Cys]-APAc-glu(AGLU)-NH2]	> 8
B3	> 8
Suc-W[Trp(5-Cl)][Hyp]E[dL]C[Api]([Glutaryl-NH(1-deoxy-D-glucityl)])LIC-{APAc-Lys(DOTA)-NH2} (linker 6-10 via Pyridine(2,6-diCH2)) [HO-Succinyl-Trp-5Clw-Hyp-Glu-leu-[Cys(2Lut)-Apc(AGLU-Glutar)-Leu-Ile-Cys]-APAc-Lys(DOTA)-NH2]	> 8
B4	> 8
